According to US20190092819A1 (published 2019):

How the values were obtained:
[1] = molecular target: Desmoglein 2 (DSG2) on cells (human) (UniProt Q14126); test: cell-based or functional assay
[2] = molecular target: Desmoglein 2 (DSG2) on cells (human) (UniProt Q14126); test: competition: attachment of 3H-labelled Ad3 virus (competitor) to HeLa cells after pre-incubation with dimeric knob; scintillation counting
[3] = molecular target: T1, soluble CD46 (UniProt P15529 35-343, limits assumed); test: Western blot probed with soluble CD46 and anti-CD46 mAb
T1 construct: also called sCD46
T1 sequence (looked up): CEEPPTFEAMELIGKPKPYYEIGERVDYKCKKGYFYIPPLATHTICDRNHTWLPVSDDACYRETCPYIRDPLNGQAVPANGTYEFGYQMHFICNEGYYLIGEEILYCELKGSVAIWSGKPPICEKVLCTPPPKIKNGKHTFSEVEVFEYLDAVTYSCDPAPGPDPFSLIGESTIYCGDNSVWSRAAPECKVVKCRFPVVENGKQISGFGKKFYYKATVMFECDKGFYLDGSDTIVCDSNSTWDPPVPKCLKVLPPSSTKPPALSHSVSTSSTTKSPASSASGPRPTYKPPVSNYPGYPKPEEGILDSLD

[4] = molecular target: T2, Desmoglein 2 (DSG2) on cells (human, UniProt Q14126 50-1118); test: competition: attachment of 3H-labelled Ad3 virus (competitor) to HeLa cells after pre-incubation with dimeric knob; scintillation counting
T2 construct: whole, on cells; also called HeLa cells, which express DSG2; DSG2 on polarized T84 cells
T2 sequence (looked up): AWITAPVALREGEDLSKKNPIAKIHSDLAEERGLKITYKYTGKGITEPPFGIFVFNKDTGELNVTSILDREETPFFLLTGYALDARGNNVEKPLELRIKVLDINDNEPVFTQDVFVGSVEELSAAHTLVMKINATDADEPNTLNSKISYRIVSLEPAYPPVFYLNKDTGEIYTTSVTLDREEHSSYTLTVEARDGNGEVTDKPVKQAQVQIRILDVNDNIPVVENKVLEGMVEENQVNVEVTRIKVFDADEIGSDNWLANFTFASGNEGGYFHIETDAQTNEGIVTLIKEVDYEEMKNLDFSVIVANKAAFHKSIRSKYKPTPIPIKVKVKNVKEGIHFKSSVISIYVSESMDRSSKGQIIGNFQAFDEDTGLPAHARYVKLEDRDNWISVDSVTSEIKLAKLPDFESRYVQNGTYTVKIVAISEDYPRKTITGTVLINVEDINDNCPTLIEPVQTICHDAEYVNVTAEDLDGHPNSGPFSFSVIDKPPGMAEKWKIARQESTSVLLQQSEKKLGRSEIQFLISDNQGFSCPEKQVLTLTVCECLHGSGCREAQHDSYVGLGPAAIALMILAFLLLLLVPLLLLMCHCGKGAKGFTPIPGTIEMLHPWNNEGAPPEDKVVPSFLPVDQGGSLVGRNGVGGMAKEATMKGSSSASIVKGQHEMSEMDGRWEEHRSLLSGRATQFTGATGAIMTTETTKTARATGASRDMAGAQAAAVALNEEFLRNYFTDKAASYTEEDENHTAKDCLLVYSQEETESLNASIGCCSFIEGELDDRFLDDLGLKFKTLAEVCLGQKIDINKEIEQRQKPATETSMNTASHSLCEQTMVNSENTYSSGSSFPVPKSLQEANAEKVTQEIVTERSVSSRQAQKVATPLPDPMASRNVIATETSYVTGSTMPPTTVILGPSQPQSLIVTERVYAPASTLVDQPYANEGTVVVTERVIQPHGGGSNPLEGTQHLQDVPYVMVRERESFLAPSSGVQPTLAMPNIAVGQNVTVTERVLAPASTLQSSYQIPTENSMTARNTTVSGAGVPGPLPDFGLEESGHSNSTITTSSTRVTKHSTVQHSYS

[5] = molecular target: T2, Desmoglein 2 (DSG2) on cells; test: cell-based or functional assay
[6] = molecular target: Recombinant human DSG2 protein (desmoglein 2), soluble (human) (UniProt Q14126); test: Western blot of purified dimeric knob (trimer band) probed with soluble recombinant DSG2, anti-DSG2 mAb and anti-mouse IgG-HRP; bands quantified

Row | Molecule | Inhibition of attachment in the presence of dimeric knob (JO-1 = 100%) [4] | Inhibition of infection in the presence of dimeric knob (JO-1 = 100%) [5] | also measured
1 | dimeric Ad3 fiber knob mutant N186D, D261N, L296R (ligand) |  |  | Inhibition of infection in the presence of dimeric knob (JO-1 = 100%) (% (JO-1 = 100%)) [1]: 0; Inhibition of attachment in the presence of dimeric knob (JO-1 = 100%) (% (JO-1 = 100%)) [2]: 18.5
2 | Ad3-S2/Kn (ligand, human adenovirus serotype 3, UniProt P04501 108-319, looked up, domain: fiber knob with shaft motifs (S2)) NKLCSKLGNGLTFDSSNSIALKNNTLWTGPKPEANCIIEYGKQNPDSKLTLILVKNGGIVNGYVTLMGASDYVNTLFKNKNVSINVELYFDATGHILPDSSSLKTDLELKYKQTADFSARGFMPSTTAYPFVLPNAGTHNENYIFGQCYYKASDGALFPLEVTVMLNKRLPDSRTSYVMTFLWSLNAGLAPETTQATLITSPFTFSYIREDD |  |  | binding result [3]: no binding
3 | dimeric Ad3 fiber knob mutant D261N (ligand) MKVSALKEKVSALKEKVSALKEKVSALKEKVSALKEGSGGGSGGGSGGGSNSIALKNNTLWTGPKPEANCIIEYGKQNPDSKLTLILVKNGGIVNGYVTLMGASDYVNTLFKNKNVSINVELYFDATGHILPDSSSLKTDLELKYKQTADFSARGFMPSTTAYPFVLPNAGTHNENYIFGQCYYKASNGALFPLEVTVMLNKRLPDSRTSYVMTFLWSLNAGLAPETTQATLITSPFTFSYIREDD |  |  | Inhibition of infection in the presence of dimeric knob (JO-1 = 100%) (% (JO-1 = 100%)) [1]: 5.3; Inhibition of attachment in the presence of dimeric knob (JO-1 = 100%) (% (JO-1 = 100%)) [2]: 45
4 | dimeric Ad3 fiber knob mutant N186D (ligand, Self-dimerizing form (JO-1 format)) MKVSALKEKVSALKEKVSALKEKVSALKEKVSALKEGSGGGSGGGSGGGSNSIALKNNTLWTGPKPEANCIIEYGKQNPDSKLTLILVKNGGIVNGYVTLMGASDYVNTLFKDKNVSINVELYFDATGHILPDSSSLKTDLELKYKQTADFSARGFMPSTTAYPFVLPNAGTHNENYIFGQCYYKASDGALFPLEVTVMLNKRLPDSRTSYVMTFLWSLNAGLAPETTQATLITSPFTFSYIREDD | 56.5 % (JO-1 = 100%) | 32.7 % (JO-1 = 100%) | 
5 | dimeric Ad3 fiber knob mutant V189G (ligand, JO-1 format) MKVSALKEKVSALKEKVSALKEKVSALKEKVSALKEGSGGGSGGGSGGGSNSIALKNNTLWTGPKPEANCIIEYGKQNPDSKLTLILVKNGGIVNGYVTLMGASDYVNTLFKNKNGSINVELYFDATGHILPDSSSLKTDLELKYKQTADFSARGFMPSTTAYPFVLPNAGTHNENYIFGQCYYKASDGALFPLEVTVMLNKRLPDSRTSYVMTFLWSLNAGLAPETTQATLITSPFTFSYIREDD | 81 % (JO-1 = 100%) | 54 % (JO-1 = 100%) | 
6 | dimeric Ad3 fiber knob mutant D261N, L296R (ligand, JO-1 format; Positions count on the full Ad3 fiber; also called combination of D261N and L296R) MKVSALKEKVSALKEKVSALKEKVSALKEKVSALKEGSGGGSGGGSGGGSNSIALKNNTLWTGPKPEANCIIEYGKQNPDSKLTLILVKNGGIVNGYVTLMGASDYVNTLFKNKNVSINVELYFDATGHILPDSSSLKTDLELKYKQTADFSARGFMPSTTAYPFVLPNAGTHNENYIFGQCYYKASNGALFPLEVTVMLNKRLPDSRTSYVMTFLWSLNAGRAPETTQATLITSPFTFSYIREDD | 20.1 % (JO-1 = 100%) | 1.5 % (JO-1 = 100%) | Western blot Residual DSG2 binding (wtAd3 knob = 100%) [6]: 7%
7 | dimeric Ad3 fiber knob mutant N186D, D261N (ligand, JO-1 format; Positions count on the full Ad3 fiber; also called combination of N186D and D261N) MKVSALKEKVSALKEKVSALKEKVSALKEKVSALKEGSGGGSGGGSGGGSNSIALKNNTLWTGPKPEANCIIEYGKQNPDSKLTLILVKNGGIVNGYVTLMGASDYVNTLFKDKNVSINVELYFDATGHILPDSSSLKTDLELKYKQTADFSARGFMPSTTAYPFVLPNAGTHNENYIFGQCYYKASNGALFPLEVTVMLNKRLPDSRTSYVMTFLWSLNAGLAPETTQATLITSPFTFSYIREDD | 23.5 % (JO-1 = 100%) | 5.2 % (JO-1 = 100%) | Western blot Residual DSG2 binding (wtAd3 knob = 100%) [6]: 7%
8 | dimeric Ad3 fiber knob mutant E299V (ligand, JO-1 format) MKVSALKEKVSALKEKVSALKEKVSALKEKVSALKEGSGGGSGGGSGGGSNSIALKNNTLWTGPKPEANCIIEYGKQNPDSKLTLILVKNGGIVNGYVTLMGASDYVNTLFKNKNVSINVELYFDATGHILPDSSSLKTDLELKYKQTADFSARGFMPSTTAYPFVLPNAGTHNENYIFGQCYYKASDGALFPLEVTVMLNKRLPDSRTSYVMTFLWSLNAGLAPVTTQATLITSPFTFSYIREDD | 97.3 % (JO-1 = 100%) | 50.7 % (JO-1 = 100%) | 
9 | dimeric Ad3 fiber knob mutant L296R (ligand, JO-1 format) MKVSALKEKVSALKEKVSALKEKVSALKEKVSALKEGSGGGSGGGSGGGSNSIALKNNTLWTGPKPEANCIIEYGKQNPDSKLTLILVKNGGIVNGYVTLMGASDYVNTLFKNKNVSINVELYFDATGHILPDSSSLKTDLELKYKQTADFSARGFMPSTTAYPFVLPNAGTHNENYIFGQCYYKASDGALFPLEVTVMLNKRLPDSRTSYVMTFLWSLNAGRAPETTQATLITSPFTFSYIREDD | 73.7 % (JO-1 = 100%) | 5.1 % (JO-1 = 100%) | 
10 | dimeric Ad3 fiber knob mutant F265L (ligand, JO-1 format) MKVSALKEKVSALKEKVSALKEKVSALKEKVSALKEGSGGGSGGGSGGGSNSIALKNNTLWTGPKPEANCIIEYGKQNPDSKLTLILVKNGGIVNGYVTLMGASDYVNTLFKNKNVSINVELYFDATGHILPDSSSLKTDLELKYKQTADFSARGFMPSTTAYPFVLPNAGTHNENYIFGQCYYKASDGALLPLEVTVMLNKRLPDSRTSYVMTFLWSLNAGLAPETTQATLITSPFTFSYIREDD | 55.6 % (JO-1 = 100%) | 17.6 % (JO-1 = 100%) | 
11 | dimeric Ad3 fiber knob mutant S190P (ligand, JO-1 format; also called 5190P) MKVSALKEKVSALKEKVSALKEKVSALKEKVSALKEGSGGGSGGGSGGGSNSIALKNNTLWTGPKPEANCIIEYGKQNPDSKLTLILVKNGGIVNGYVTLMGASDYVNTLFKNKNVPINVELYFDATGHILPDSSSLKTDLELKYKQTADFSARGFMPSTTAYPFVLPNAGTHNENYIFGQCYYKASDGALFPLEVTVMLNKRLPDSRTSYVMTFLWSLNAGLAPETTQATLITSPFTFSYIREDD | 73.4 % (JO-1 = 100%) | 30.9 % (JO-1 = 100%) | 
12 | Ad3-S3/Kn (ligand, human adenovirus serotype 3, UniProt P04501 94-319, looked up, domain: fiber knob with shaft motifs (S3)) SINLPIGNGLQIEQNKLCSKLGNGLTFDSSNSIALKNNTLWTGPKPEANCIIEYGKQNPDSKLTLILVKNGGIVNGYVTLMGASDYVNTLFKNKNVSINVELYFDATGHILPDSSSLKTDLELKYKQTADFSARGFMPSTTAYPFVLPNAGTHNENYIFGQCYYKASDGALFPLEVTVMLNKRLPDSRTSYVMTFLWSLNAGLAPETTQATLITSPFTFSYIREDD |  |  | binding result [3]: no binding
13 | Ad3-S4/Kn (ligand, human adenovirus serotype 3, UniProt P04501 77-319, looked up, domain: fiber knob with shaft motifs (S4)) SLEENIKVNTPLTKSNHSINLPIGNGLQIEQNKLCSKLGNGLTFDSSNSIALKNNTLWTGPKPEANCIIEYGKQNPDSKLTLILVKNGGIVNGYVTLMGASDYVNTLFKNKNVSINVELYFDATGHILPDSSSLKTDLELKYKQTADFSARGFMPSTTAYPFVLPNAGTHNENYIFGQCYYKASDGALFPLEVTVMLNKRLPDSRTSYVMTFLWSLNAGLAPETTQATLITSPFTFSYIREDD |  |  | binding result [3]: no binding
14 | Ad3-S5/Kn (ligand, human adenovirus serotype 3, UniProt P04501 60-319, looked up, domain: fiber knob with shaft motifs (S5)) SLQLKVGSGLTVDTTDGSLEENIKVNTPLTKSNHSINLPIGNGLQIEQNKLCSKLGNGLTFDSSNSIALKNNTLWTGPKPEANCIIEYGKQNPDSKLTLILVKNGGIVNGYVTLMGASDYVNTLFKNKNVSINVELYFDATGHILPDSSSLKTDLELKYKQTADFSARGFMPSTTAYPFVLPNAGTHNENYIFGQCYYKASDGALFPLEVTVMLNKRLPDSRTSYVMTFLWSLNAGLAPETTQATLITSPFTFSYIREDD |  |  | binding result [3]: no binding
